# Results published in patent US10696642B2, “TEAD transcription factor autopalmitoylation inhibitors” (The General Hospital Corporation, priority 2015, dated 2020).
# B1: TEAD2 YBD (Homo sapiens) (protein)
# chain: AWQARGLGTARLQLVEFSAFVEPPDAVDSYQRHLFVHISQHCPSPGAPPLESVDVRQIYDKFPEKKGGLRELYDRGPPHAFFLVKFWADLNWGPSGEEAGAGGSISSGGFYGVSSQYESLEHMTLTCSSKVCSFGKQVVEKVETERAQLEDGRFVYRLLRSPMCEYLVNFLHKLRQLPERYMMNSVLENFTILQVVTNRDTQELLLCTAYVFEVSTSERGAQHHIYRLVRD
# notes: The cDNA encoding human TEAD2 (residues 217-447, TEAD2^217-447) was cloned into a pET29 vector; made in house; host or cells: E. coli BL21(DE3)-T1R
# Substrate: CCCCCCCCCCCCCCCC(=O)SCCNC(=O)CCNC(=O)[C@H](O)C(C)(C)COP(=O)(O)OP(=O)(O)OC[C@H]1O[C@@H](n2cnc3c(N)ncnc32)[C@H](O)[C@@H]1OP(=O)(O)O
# Test: TEAD2 YBD autopalmitoylation kinetics, palmitoyl-CoA dose-dependency
# Format: biochemical, human
# Conditions: other: recombinant TEAD2 YBD, alkyne palmitoyl-CoA, 3 min (FIG. 2J); pH 6.4
# Experimental: Intact mass spectrometry analysis of the recombinant TEAD2-YBD was carried out. The peak corresponding to unmodified TEAD2 at 26497 Dalton. A small side peak was also observed at 26736 Dalton (FIG. 2E), consistent with a palmitate modification to the protein. […] Moreover, autopalmitoylation of TEAD2 YBD was confirmed by acyl-biotin exchange (ABE) assay, which converts S-palmitoylation to stable biotinylation for detection (FIG. 2G). With 1 μM of palmitoyl-CoA at neutral pH, TEAD2 YBD was autopalmitoylated within 2 min, and the palmitoylation levels reached saturation after 10 min (FIG. 2H). To determine dose-dependency of palmitoyl-CoA, recombinant TEAD2 YBD was incubated with various concentrations of alkyne palmitoyl-CoA for 3 min, and the reaction rate was determined by quantifying the intensities of streptavidin blots (FIG. 2I). […] The physiological palmitoyl-CoA concentrations range from 100 nM to 10 μM in cells.
# Recombinant GST-TEAD2 or His6TEAD2 (500 ng) protein was incubated with the indicated concentrations of alkyne palmitoyl-CoA (Cayman Chemical) for 2 h or the indicated time in 50 mM MES, pH 6.4. […] Samples were analyzed by SDS-PAGE and streptavidin HRP. Bands intensity obtained from streptavidin blot were quantified using Image J (NIH) and the rate of palmitoylation in arbitrary unit was plotted against the concentration of palmitoyl-CoA. […]
protein,measurement,value
B1,Km,0.8 µM
